These results are taken from paper doi:10.1101/070185 (bioRxiv, 2016).

Data set [1] deals with the molecule itself. The data set is described as follows: cross-linking.
For data set [2], the target named is T1, ETS1Δ335 R394A/Y395A (UniProt P14921 335-441, R394A;Y395A).
T1 sequence: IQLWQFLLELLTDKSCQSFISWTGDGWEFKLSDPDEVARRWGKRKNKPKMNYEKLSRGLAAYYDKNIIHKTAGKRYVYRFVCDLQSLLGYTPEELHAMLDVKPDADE
Description: EMSA.

In data set [3] the target is T2, ETS1Δ335 (UniProt P14921 335-441).
T2 sequence: T1 sequence with A60R, A61Y
The data set is described as follows: EMSA.

The target of data set [4] is T3, ETS1Δ335 L337A (UniProt P14921 335-441, L337A).
T3 sequence: T1 sequence with L3A, A60R, A61Y
The data set is described as follows: EMSA.

Where a chain is given by its changes, count along the chain named. In names and notes the source's numbering stands.

B1: ETS1Δ335 R378C (domain or fragment, UniProt P14921 335-441, looked up)
chain: T1 sequence with R44C, A60R, A61Y
As for B1, in data set [1], the “stoichiometry N” value was found to be 2.

B2: ETS1Δ335 L337A R378C (domain or fragment, UniProt P14921 335-441, looked up)
chain: T1 sequence with L3A, R44C, A60R, A61Y
Regarding B2, in data set [1], the “stoichiometry N” value is 2.

B3: ETS1Δ335 R378C/R394A/Y395A (domain or fragment, UniProt P14921 335-441, looked up)
chain: T1 sequence with R44C
B3: the “stoichiometry N” value in data set [1] amounted to 2.

B4: MMP3 M2 (dsDNA)
DNA 1: ACAGGAAGCACTTTTTGG
DNA 2: CCAAAAAGTGCTTCCTGT
B4: the Kd was 7.33 ± 0.55 nM in data set [2] and 6.37 ± 0.92 nM in data set [3].

B5: MMP3 WT (dsDNA)
DNA 1: ACAGGAAGCACTTCCTGG
DNA 2: CCAGGAAGTGCTTCCTGT
In the case of B5, the binding result in data set [4] is “no binding”. The Kd in data set [2] worked out at 16.1 ± 1.3 nM; in data set [3], 1.2 ± 0.2 nM.

B6: p53 (dsDNA)
DNA 1: TTAGGAAGGCTTTCCGTA
DNA 2: TACGGAAAGCCTTCCTAA
For the molecule B6, the binding result in data set [2] and in data set [3] was “no binding” each time.

B7: MMP3 M1 (dsDNA)
DNA 1: ACAAAAAGCACTTCCTGG
DNA 2: CCAGGAAGTGCTTTTTGT
With B7, the dissociation constant Kd was found to be 105 ± 5.2 nM in data set [2] and 13.5 ± 1.9 nM in data set [3].
